The values that follow come from PMC7846786, “DutaFabs are engineered therapeutic Fab fragments that can bind two targets simultaneously” (Nature Communications, 2021).

What all share (conditions): both partners purified
The target of assay [1] is T1, recombinant human PDGF-BB (human, UniProt P01127).
T1 construct: platelet-derived growth factor subunit B, human; homodimer; Two suppliers and two Peprotech catalogue numbers are printed; also called PDGF-BB dimer; source: bought: R&D Systems (ELISAs); bought: Peprotech (catalog number 100-14B for panning; 100-13A printed for crystallisation)
T1 sequence (P01127 82-190): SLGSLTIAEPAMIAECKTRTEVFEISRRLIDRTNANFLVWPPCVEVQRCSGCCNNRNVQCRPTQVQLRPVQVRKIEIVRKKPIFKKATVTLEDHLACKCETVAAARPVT
The experiment in a line: ELISA; IC50 competition ELISA: rhVEGFR-1-Fc (1 µg/mL) or rhPDGFRβ-Fc (0.5 µg/mL) coated; ligand (5 pM VEGFA-165, 8 pM VEGFA-121 or 5 pM PDGF-BB) pre-incubated 1.5 h with 1:2 dilutions of Fab in PBS, 0.1% Tween-20, 1% BSA; 10 min on the plate at RT; free ligand detected with biotinylated anti-hVEGF or anti-hPDGF-BB goat IgG; 4-parameter fit.

In assay [2] the target is T2, recombinant human VEGFA-121 (Homo sapiens, strain).
T2 construct: homodimer; Two suppliers are named for different experiments; also called VEGFA dimer; source: bought: Peprotech (catalog number 100-20A; panning, crystallisation); bought: Humanzyme (ELISAs)
T2 chain: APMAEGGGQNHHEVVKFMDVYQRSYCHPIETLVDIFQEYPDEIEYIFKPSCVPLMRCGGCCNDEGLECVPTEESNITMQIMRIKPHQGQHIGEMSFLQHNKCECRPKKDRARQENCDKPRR
The assay is described as above.

Assay [3] addresses T3, recombinant human VEGFA-165 (Homo sapiens, UniProt P15692-4, strain).
T3 construct: homodimer; source: bought: Humanzyme
The assay is described as above.

In assay [4] the target is T4, PDGF-BB (Homo sapiens, UniProt P01127).
T4 construct: platelet-derived growth factor subunit B, human, recombinant; homodimer PDGF-BB; as I recall, the commercial protein is the 109-residue mature B chain (residues 82-190 of the precursor); also called recombinant human PDGF-BB; source: 100-13A is printed for crystallization) and from R&D Systems
T4 sequence (P01127 82-190): as the sequence (P01127 82-190) above
The experiment in a line: kinetic exclusion assay (KinExA); in solution; 4 h pre-incubation of 50 pM DutaFab with 244 fM-4 nM PDGF-BB, or of 100 pM DutaFab with 122 fM-2 nM VEGFA-121; duplicate 1:2 titration series; 25 °C.

Assay [5] concerns the target T4, PDGF-BB. The description is as above. The source holds these as a separate data set.
For assay [6], the target named is T5, human VEGFA-121 (Homo sapiens, UniProt P15692).
T5 construct: homodimer
T5 sequence (P15692 other isoform, or with tags, fused parts or gaps): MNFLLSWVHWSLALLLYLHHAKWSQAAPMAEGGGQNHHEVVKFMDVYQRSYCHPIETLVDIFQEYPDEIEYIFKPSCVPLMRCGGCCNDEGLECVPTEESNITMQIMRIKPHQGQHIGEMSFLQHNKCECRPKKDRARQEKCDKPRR
The assay is described as above.

For assay [7], the target named is T5, human VEGFA-121. The experiment in a line: SPR; affinities of the Fab fragments used in the in-vivo study for human and rat VEGF-A121, expressed as KD (nM); who was immobilised and the conditions not given.
In a further assay the target is T6, rat VEGF-A121 (Rattus norvegicus, UniProt P16612-4, strain).
T6 construct: The homodimer is stated for VEGFA in general
The assay is described as above.

T3 sequence (P15692 whole entry, looked up, change not shown): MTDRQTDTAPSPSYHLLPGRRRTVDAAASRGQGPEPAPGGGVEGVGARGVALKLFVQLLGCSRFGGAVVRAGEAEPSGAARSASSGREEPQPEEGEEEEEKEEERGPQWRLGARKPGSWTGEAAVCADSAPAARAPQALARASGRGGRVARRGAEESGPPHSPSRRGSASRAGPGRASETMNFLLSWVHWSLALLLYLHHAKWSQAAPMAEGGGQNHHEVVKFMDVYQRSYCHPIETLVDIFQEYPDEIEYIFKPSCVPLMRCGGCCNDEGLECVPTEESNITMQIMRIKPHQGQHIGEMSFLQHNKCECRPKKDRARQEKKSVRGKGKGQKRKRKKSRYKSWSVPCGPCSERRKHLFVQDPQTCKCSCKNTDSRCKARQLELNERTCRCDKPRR

B1: DutaFab clone VP (initial bispecific DutaFab against VEGFA and PDGF-BB) (Fab, V domains shown)
VH: EEQLVESGGGLVQPGGSLRLSCAASGWWFEYTDMSWVRQAPGQGLEWVGSISPSGGSTYYNTNFIGRFTISRDDSKNTLYLQMNSLRDEDTAVYYCARDEGYFDEWGQGTLVTVSS
VL: AIQMTQSPSSLSASVGDRVTITCQASYWLHKYLAWYQQKPGQAPKLLIYDASELEYGVPDRFSGSGSGTDFTLTISSLEPEDFAVYYCQNYRYHPYTFGQGTKLEIK
notes: human VH3 scaffold with CH1; H-side paratope against PDGF-BB; human Vk1 scaffold with Ck; L-side paratope against VEGFA; Bispecific Fab with two paratopes in one Fv; also called DutaFab VP; original bispecific DutaFab VP; source: periplasmic expression in E. coli or HEK Expi293 cells, purified (kappa select, then cation exchange or SEC)
For B1, the values for the IC50 in assay [1], in assay [2] and in assay [3] were 21000 pM, 894 pM and 23 pM, respectively.

B2: DutaFab VP mat YHE (Fab, V domains shown)
VH: DLQLVESGGGLVKPGGSLRLSCAADGWWFGYTDMSWVRQAPGKGLEWVGSISYKGGSTYYNTKFIGRFTISRDDDTNTLYLQMNSLRAEDTAVYYCARDDGYFDTWGQGTLVTVSS
VL: AIYMHQEPSSLSASVGDRVTITCHGSYWLSNYLAWYQQKPGKAPKLLIYDGKEREHGVPSRFSGSGSHEDYTLTISSLQPEDFATYYCQQYRYHPYTFGHGTKVEIK
notes: human CH1 constant domain, as the heavy chain of Dm1 (PDB 6T9D, 6T9E); that R108 may be the first residue of the UniProt entry, so it must not be doubled; Co-operativity variant of Dm1; the PDB entries hold the parent VP mat; also called clone VP mat YHE; source: periplasmatic expression in E. coli or HEK Expi293 cells, purified (kappa select, then cation exchange or SEC)
As to B2, the Kd in the assay with PDGF-BB [4] came to 4.02 pM; in the assay with PDGF-BB [5] it was 6 pM; with human VEGFA-121 [6], 3.23 pM; with human VEGFA-121 [7], 5 pM; in the assay with rat VEGF-A121, 43 pM.
